Reference: paper doi:10.1101/784462, “Rv3722c governs aspartate-dependent nitrogen metabolism in Mycobacterium tuberculosis” (bioRxiv, 2019)

Target: the molecule itself
Assay: crystal structure; Rv3722c (~40 mg/mL) co-crystallised with 5 mM L-glutamic acid (PDB 6U78) or 10 mM L-kynurenine (PDB 6U7A), sitting drop vapor diffusion at 17 °C

B1: Rv3722c (aspartate aminotransferase of Mycobacterium tuberculosis) (enzyme)
chain: SFDSLSPQELAALHARHQQDYAALQGMKLALDLTRGKPSAEQLDLSNQLLSLPGDDYRDPEGTDTRNYGGQHGLPGLRAIFAELLGIAVPNLIAGNNSSLELMHDIVAFSMLYGGVDSPRPWIQEQDGIKFLCPVPGYDRHFAITETMGIEMIPIPMLQDGPDVDLIEELVAVDPAIKGMWTVPVFGNPSGVTYSWETVRRLVQMRTAAPDFRLFWDNAYAVHTLTLDFPRQVDVLGLAAKAGNPNRPYVFASTSKITFAGGGVSFFGGSLGNIAWYLQYAGKKSIGPDKVNQLRHLRFFGDADGVRLHMLRHQQILAPKFALVAEVLDQRLSESKIASWTEPKGGYFISLDVLPGTARRTVALAKDVGIAVTEAGASFPYRKDPDDKNIRIAPSFPSVPDLRNAVDGLATCALLAATETLLNQGLASSAPNVR
notes: also called AspAT; not shown: His6, C-terminal, cleaved
B1: binds.
